Experimental data from the supplement of paper PMC7125110.
± gives the standard error. This sample holds only a part of the variants without activity.

B1: glmS ribozyme (parent)
chain: AUAAAAGCGCCAGAACUACAGAAAUGUAGUUGACGAGGAGGAGGUUUAUCGAAUUUUCGGCGGAUGCCUCCAAA

Variants of: B1
Test: self-cleavage kobs at 10000 uM GlcN6P; higher = faster cleavage; RNA array
Conditions: with glucosamine-6-phosphate
Summary of the method: (§1)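 The measurements used barcoded ribozyme variants on sequenced MiSeq chips, transcribed in situ by E. coli RNA polymerase and tracked at 37 °C with a hybridised Cy3 probe. Glucosamine-6-phosphate, 40 μM to 10 mM in HEPES/KCl/Mg(OAc)2 buffer, was flowed in while tiles were imaged over ~14 h. Baseline-normalised signals, also normalised to non-cleaving reference variants, gave per-tile medians that were fit to one- or two-exponential decays for kobs. kcat and KM resulted from weighted Michaelis–Menten fits across concentrations.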

Row | Variant | self-cleavage kobs at 10000 uM GlcN6P [s⁻¹]
1 | C8U U31C A39U G66C | < 1e-05
2 | G9U G43U A53C | < 1e-05
3 | U49C U57G | < 1e-05
4 | G7C A14U U47A | < 1e-05
5 | G9C G38C G43U | < 1e-05
6 | C10A C16U A52C | < 1e-05
7 | C11A U31C U45A | 4.34e-05 ± 1.5e-05
8 | A12C G38U A52U C58A U65A C67U | < 1e-05
9 | C8U C16A A39C C58U A64G C67G | < 1e-05
10 | C10U A39G A42U U49A A53C U69G | < 1e-05
11 | C10G A14C G63U | < 1e-05
12 | C8U A12C A15U G38U A64U | < 1e-05
13 | C11A A42G C67U | 4.66e-05 ± 1.8e-05
14 | A6C C50A U55G | < 1e-05
15 | A6G U30A C34U C67G C71G | 7.35e-05 ± 3.3e-05
16 | C11U A64U C67G | < 1e-05
17 | C10G C34A C67G | 0.00066 ± 0.00026
18 | A6U A12U A64G | 0.000171 ± 4.1e-05
19 | G9C G32C A36U U46A | < 1e-05
20 | A12C C68G | 2.93e-05 ± 8.5e-06
21 | C8A A39U U47G | < 1e-05
22 | A42C A48U G66C | < 1e-05
23 | C8A A15G A39C C70G | < 1e-05
24 | A6U A33G C34U G44U U49C U57G | < 1e-05
25 | C10G A14U C16A U54G C61U G62U | < 1e-05
26 | A6U G38A G66C | < 1e-05

Row | Variant | self-cleavage kobs at 10000 uM GlcN6P [s⁻¹]
27 | U55C G59U | 2.55e-05 ± 1.2e-05
28 | G9A U65A C67A C70G | 5.56e-05 ± 1.6e-05
29 | G9A A53G | 3.28e-05 ± 1.3e-05
30 | C11U U69C | 0.000482 ± 9.2e-05
31 | C8G G32U G66U | < 1e-05
32 | G7A U30A A39C A48C | < 1e-05
33 | A6C U31C G35A A42C | < 1e-05
34 | C8A G44A U46G C70G | < 1e-05
35 | C11U A15G C58G C68U | 0.000112 ± 2.5e-05
36 | G7U C11U C16A U45A G51A G60C | < 1e-05
37 | C11A A33G C50U C58U G59U G63A | < 1e-05
38 | A12C G26A G41A U54G | 0.00044 ± 0.00012
39 | G7U A48G C50G C61G | 0.000895 ± 0.00024
40 | A6U A39C G43U G51U C70G C71A | < 1e-05
41 | G9A A33U U69C | < 1e-05
42 | C10U A33U G37C A53U U57A A64G | < 1e-05
43 | C11U A39U U54G | 0.000492 ± 0.00011
44 | C10A C11G C16G A48U C50G C70A | 6.85e-05 ± 1.8e-05
45 | C8G G51U G59U | < 1e-05
46 | C8A C11G U49C C67G | < 1e-05
47 | C11U G32U G35U A64U | < 1e-05
48 | C8A A42G G66U | < 1e-05
49 | U45C A48U U65A | < 1e-05
50 | C10U G13A G40U | < 1e-05
51 | A12C G29C C70U | 0.00119 ± 0.00031
52 | A12C G13U U47A U56A | 4.59e-05 ± 1.6e-05

Row | Variant | self-cleavage kobs at 10000 uM GlcN6P [s⁻¹]
53 | C10U A36C U69G | 0.000116 ± 2.9e-05
54 | G9C C10G A52U C71A | < 1e-05
55 | C8A C11U C34U A39U C58A C67U | < 1e-05
56 | A53G C61U C68G | 4.37e-05 ± 1.2e-05
57 | C8A U56A A64G | < 1e-05
58 | A6G C16G C50G | 5.57e-05 ± 2.1e-05
59 | C8U A42U C50U | < 1e-05
60 | C8A A12G U31G A39U | < 1e-05
61 | A6U C50G A53C C71A | 4.1e-05 ± 2e-05
62 | A6C G9C C50A C58A A64U C70G | < 1e-05
63 | A6C A15U C34A A39G U65A | < 1e-05
64 | G9A C34A A64G C70G | < 1e-05
65 | G9U U30C G32A | < 1e-05
66 | C8G U30A A39G G41C U54G C67A | < 1e-05
67 | A6U G29U G62C | < 1e-05
68 | A6G A52U G60A G66A | < 1e-05
69 | C8G G43C C50U | < 1e-05
70 | C10U A42C A52U | < 1e-05
71 | A6U A53C | 5.75e-05 ± 9.2e-06
72 | C8U G13U A15U C50U | < 1e-05
73 | C8U G29A U31G | < 1e-05
74 | C11U G38U U45A A48U C71G | < 1e-05
75 | C11U G32A A42G A53U | 9.31e-05 ± 2.5e-05
76 | C8U G51U U69A | 0.000401 ± 0.00014
77 | C10U G37A G44A C70U | < 1e-05
78 | G9U A15U A52U | < 1e-05

Row | Variant | self-cleavage kobs at 10000 uM GlcN6P [s⁻¹]
79 | C10A C11A G44A | < 1e-05
80 | A6C C8A A36C | < 1e-05
81 | G7A G13C G60A | < 1e-05
82 | C8A A36G U57C | < 1e-05
83 | A6C C10G U31A G43U C70U | < 1e-05
84 | C10U A33G G35C U45G C68U | < 1e-05
85 | A6G U45A U57G | < 1e-05
86 | C8U A14U A36U | < 1e-05
87 | U2G U47C | 0.00421 ± 0.0012
88 | U54G C58G A64G C71U | 4.18e-05 ± 1.4e-05
89 | C11G A42U C50G C67U | 0.000569 ± 0.00021
90 | C11A G66A | 6.59e-05 ± 1.3e-05
91 | G7A A48G U65A | < 1e-05
92 | C10U A15C U31C | < 1e-05
93 | C10G G40U U55A C61U | < 1e-05
94 | G9C C34U | < 1e-05
95 | C10U U31C U57G | < 1e-05
96 | C8U A39C G41A U57C G59U | < 1e-05
97 | C10G A39U A48C | < 1e-05
98 | C11G G35C G63U C67A | < 1e-05
99 | A52U U57A C67U | 0.000894 ± 0.0002
100 | A12C G37A A39C | 0.000849 ± 0.00015
101 | G7A A53C G63A | < 1e-05
102 | A6U U31C A36C | < 1e-05

Variants of: B1
Test: self-cleavage kobs at 2500 uM GlcN6P; higher = faster cleavage; RNA array
Conditions: with glucosamine-6-phosphate
Summary of the method: as §1

Row | Variant | self-cleavage kobs at 2500 uM GlcN6P [s⁻¹]
103 | U49C U57G | < 1e-05
104 | G40U G44A U55C C67U | < 1e-05
105 | G44A U49A G62U | < 1e-05
106 | U46G A48U C61A | < 1e-05
107 | U54G C61U C70U | 5.89e-05 ± 1.4e-05
108 | C50U C70U C71A | 0.000152 ± 4e-05
109 | G41U C58A A64G U69A | < 1e-05
110 | G51A U56C C70G | < 1e-05
111 | C61U U65A C67U C70A | 5.06e-05 ± 2.1e-05
112 | U49A G51A G62U | < 1e-05
113 | A42U A48G C61A | < 1e-05
114 | G41C G44U U54A C68A C71A | < 1e-05
115 | A42G G51C G60C C68G | < 1e-05
116 | U47C U57C C71G | < 1e-05
117 | U55A A64C C71U | 7.29e-05 ± 3.2e-05
118 | A48U C50A U65G | < 1e-05
119 | U45G A48U U55C | 8.04e-05 ± 2.8e-05
120 | A42C A48U G66C | < 1e-05
121 | U55C G59U | 3.25e-05 ± 1.3e-05
122 | A53G C67G C68U | 7.23e-05 ± 2.2e-05
123 | U46G C58U C68G | 0.000337 ± 0.00012
124 | A48C C61U G66A | < 1e-05
125 | G41U G44C U55G G59U | < 1e-05

Row | Variant | self-cleavage kobs at 2500 uM GlcN6P [s⁻¹]
126 | C68U U69C C70U | 3.99e-05 ± 1.4e-05
127 | G44A U49C G62U | < 1e-05
128 | G41U G51U G62C | < 1e-05
129 | U49A U54G | 4.22e-05 ± 1.9e-05
130 | A48C C50G A64C | < 1e-05
131 | U45C A48U U65A | < 1e-05
132 | A42U C58U U65G | < 1e-05
133 | U55A G59A A64G | 2.94e-05 ± 1.4e-05
134 | A42U G43A G60U | < 1e-05
135 | G43A U47G C61G | < 1e-05
136 | A64C C67G C68A | 6.52e-05 ± 1.8e-05
137 | A53G C61U C68G | 6.94e-05 ± 2.7e-05
138 | U54A G63A C70U | < 1e-05
139 | C58U U65A C68G | 0.000102 ± 3.1e-05
140 | A42U U45C A52G C70U | < 1e-05
141 | A53C U55G G66A | 0.00165 ± 0.00032
142 | G43U U49G C61G | < 1e-05
143 | G41C A42U G60C G62C | < 1e-05
144 | A52G U54G C68G | 7.13e-05 ± 2.9e-05
145 | A42G A52G C67A | 0.000326 ± 8.1e-05
146 | U46G C61U A64G | < 1e-05
147 | A42U U56A U69G | 0.00299 ± 0.00059
148 | A48C A52G C58U | < 1e-05

Row | Variant | self-cleavage kobs at 2500 uM GlcN6P [s⁻¹]
149 | G40U G51C C58U G60U G66U | < 1e-05
150 | A42U U55A G60U G63C | < 1e-05
151 | U56A C58G C67U | 4.09e-05 ± 1.7e-05
152 | G41A C61A G62A | < 1e-05
153 | G44U U45G C70U | 0.000791 ± 0.00023
154 | G40U G66A C70U | 0.0016 ± 0.00053
155 | U55A U56A A64G | 0.0035 ± 0.00087
156 | A52U U56A C58G | < 1e-05
157 | G43C U47A G62U C71U | < 1e-05
158 | U47G C58A G59U C70G | 0.000334 ± 9.7e-05
159 | G40U G43U C50G | < 1e-05
160 | U49G C61U C67G | < 1e-05
161 | A52U G59U A64U C70U | < 1e-05
162 | U46A U56G C67G | 0.000172 ± 4.6e-05
163 | U47A C68G U69G | 7.59e-05 ± 3.7e-05
164 | G51A A53C G62C | < 1e-05
165 | U54G C58G A64G C71U | 5.26e-05 ± 2.3e-05
166 | U47G A48U U65G | 0.000213 ± 5.9e-05
167 | A42G U65C | 0.000535 ± 0.00016
168 | A52U U57A C67U | 0.000441 ± 9.6e-05
169 | U45G A52U G63C | < 1e-05
170 | A52U C61G C67U | 8.45e-05 ± 3e-05
171 | U56A G63U | < 1e-05
